Measurements: US20060257938A1, “Method of screening for drugs that block ligand binding to a lipid binding protein” (priority 2005, published 2006)
Substitutions are numbered along the chain they refer to.

B1: 18L 73F 117G 72A (protein, listed as Rattus norvegicus)
chain: AFDGTWKVDRNENYEKFLEKMGINVVKRKLGAHDNLKLTITQEGNKFTVKESSNFRNIDVVFELGVDFAYSAFDGTELTGTWTMEGNKLVGKFKRVDNGKELIAVREISGNELIQTGTYEGVEAKRIFKKE
modifications: PEPTIDE (1)...(131) wild-type rat intestinal fatty acid binding protein
B2: 38M 104S 115A 74F 72A (protein, listed as Rattus norvegicus)
chain: B1 chain with L18M, L38M, F73A, D74F, A104S, Q115A, G117Y
modifications: PEPTIDE (1)...(131) wild-type rat intestinal fatty acid binding protein
B3: 18V 31Y 73I 72A (protein, listed as Rattus norvegicus)
chain: B1 chain with L18V, G31Y, F73I, G117Y
modifications: PEPTIDE (1)...(131) wild-type rat intestinal fatty acid binding protein
B4: 14L 18L 73L 117A 72A (protein, listed as Rattus norvegicus)
chain: B1 chain with Y14L, F73L, G117A
modifications: PEPTIDE (1)...(131) wild-type rat intestinal fatty acid binding protein
B5: 78F 102I 72A (protein, listed as Rattus norvegicus)
chain: B1 chain with L18M, F73A, L78F, L102I, G117Y
modifications: PEPTIDE (1)...(131) wild-type rat intestinal fatty acid binding protein
B6: 62N 106F 117A 72A (protein, listed as Rattus norvegicus)
chain: B1 chain with L18M, F62N, F73A, R106F, G117A
modifications: PEPTIDE (1)...(131) wild-type rat intestinal fatty acid binding protein
B7: 14L 18L 31W 73W 117L 72A (protein, listed as Rattus norvegicus)
chain: B1 chain with Y14L, G31W, F73W, G117L
modifications: PEPTIDE (1)...(131) wild-type rat intestinal fatty acid binding protein
B8: 18V 31I 55L 73V 72A (protein, listed as Rattus norvegicus)
chain: B1 chain with L18V, G31I, F55L, F73V, G117Y
modifications: PEPTIDE (1)...(131) wild-type rat intestinal fatty acid binding protein
B9: 14I 18V 31W 73I 117V 72A (protein, listed as Rattus norvegicus)
chain: B1 chain with Y14I, L18V, G31W, F73I, G117V
modifications: PEPTIDE (1)...(131) wild-type rat intestinal fatty acid binding protein
B10: 14L 18I 31L 73F 117A 72A (protein, listed as Rattus norvegicus)
chain: B1 chain with Y14L, L18I, G31L, G117A
modifications: PEPTIDE (1)...(131) wild-type rat intestinal fatty acid binding protein
B11: 14A 18Y 31W 73G 117V 72A (protein, listed as Rattus norvegicus)
chain: B1 chain with Y14A, L18Y, G31W, F73G, G117V
modifications: PEPTIDE (1)...(131) wild-type rat intestinal fatty acid binding protein
B12: 18V 31Y 73V 72A (protein, listed as Rattus norvegicus)
chain: B1 chain with L18V, G31Y, F73V, G117Y
modifications: PEPTIDE (1)...(131) wild-type rat intestinal fatty acid binding protein
B13: 14L 18L 31L 73G 117V 72A (protein, listed as Rattus norvegicus)
chain: B1 chain with Y14L, G31L, F73G, G117V
modifications: PEPTIDE (1)...(131) wild-type rat intestinal fatty acid binding protein
B14: 38V 62V 117A 72A (protein, listed as Rattus norvegicus)
chain: B1 chain with L18M, L38V, F62V, F73A, G117A
modifications: PEPTIDE (1)...(131) wild-type rat intestinal fatty acid binding protein
B15: 38Q 62I 106I 117A 72A (protein, listed as Rattus norvegicus)
chain: B1 chain with L18M, L38Q, F62I, F73A, R106I, G117A
modifications: PEPTIDE (1)...(131) wild-type rat intestinal fatty acid binding protein
B16: 38A 106V 117A 72A (protein, listed as Rattus norvegicus)
chain: B1 chain with L18M, L38A, F73A, R106V, G117A
modifications: PEPTIDE (1)...(131) wild-type rat intestinal fatty acid binding protein
B17: 14W 18L 117S 72A (protein, listed as Rattus norvegicus)
chain: B1 chain with Y14W, F73A, G117S
modifications: PEPTIDE (1)...(131) wild-type rat intestinal fatty acid binding protein
B18: 18G 31W 73V 72A (protein, listed as Rattus norvegicus)
chain: B1 chain with L18G, G31W, F73V, G117Y
modifications: PEPTIDE (1)...(131) wild-type rat intestinal fatty acid binding protein
B19: 14I 18L 31W 73V 117G 72A (protein, listed as Rattus norvegicus)
chain: B1 chain with Y14I, G31W, F73V
modifications: PEPTIDE (1)...(131) wild-type rat intestinal fatty acid binding protein

Assay: Probe fluorescence ratio response to palmitoleic acid relative to ADIFAB2
Format: binding
Conditions: response relative to ADIFAB2
In short: (§1)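 Each fatty acid's response was expressed relative to ADIFAB2, the rI-FABP-L72A probe, as ΔR/ΔRreference. ΔR is the change in the background-corrected two-wavelength intensity ratio R=Fλ1/Fλ2 from its analyte-free baseline R0. Emission was read near about 420-480 nm for unbound and about 495-580 nm for FFA-bound probe.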

Compared with B1, B2 is lower in “DR/DR POA” value: 1.731 for the first, 1.172 for the second.

Going from B3 to B4, the “DR/DR POA” value falls from 2.528 to 0.410.

Compared with B5, B6 is lower in “DR/DR POA” value: 2.022 for the first, 0.341 for the second.

First: B7
Second: B8
The “DR/DR POA” value of the first is lower: 2.059 for the first, 2.285 for the second.

Compared with B9, B10 is lower in “DR/DR POA” value: 1.411 for the first, 0.235 for the second.

First: B11
Second: B12
The “DR/DR POA” value of the first is lower: 0.883 for the first, 2.376 for the second.

Going from B13 to B14, the “DR/DR POA” value rises from 0.180 to 0.668.

Compared with B15, B16 is lower in “DR/DR POA” value: 0.473 for the first, 0.121 for the second.

Going from B17 to B18, the “DR/DR POA” value falls from 0.811 to 0.770.

For B19, the “DR/DR POA” value was 1.770.

Assay: Probe fluorescence ratio response to stearic acid relative to ADIFAB2
Format: binding
Conditions: response relative to ADIFAB2
In short: as §1

First: B1
Second: B2
The “DR/DR SA” value of the first is higher: 0.663 for the first, 0.356 for the second.

Going from B3 to B4, the “DR/DR SA” value falls from 1.139 to 0.031.

Compared with B5, B6 is lower in “DR/DR SA” value: 1.877 for the first, 0.490 for the second.

Going from B7 to B8, the “DR/DR SA” value rises from 0.294 to 1.233.

First: B9
Second: B10
The “DR/DR SA” value of the first is higher: 0.283 for the first, 0.077 for the second.

First: B11
Second: B12
The “DR/DR SA” value of the first is lower: 0.158 for the first, 1.330 for the second.

First: B13
Second: B14
The “DR/DR SA” value of the first is lower: 0.170 for the first, 0.495 for the second.

First: B15
Second: B16
The “DR/DR SA” value of the first is higher: 0.663 for the first, 0.065 for the second.

Compared with B17, B18 is higher in “DR/DR SA” value: 0.297 for the first, 0.489 for the second.

With B19 the “DR/DR SA” value was 0.606.

Assay: Probe fluorescence ratio response to arachidonic acid relative to ADIFAB2
Format: binding
Conditions: arachidonic acid; response relative to ADIFAB2
In short: as §1

First: B1
Second: B2
The “DR/DR AA” value of the first is higher: 2.445 for the first, 1.690 for the second.

First: B3
Second: B4
The “DR/DR AA” value of the first is higher: 1.946 for the first, 0.905 for the second.

Compared with B5, B6 is lower in “DR/DR AA” value: 2.093 for the first, 1.265 for the second.

Going from B7 to B8, the “DR/DR AA” value rises from 1.772 to 2.273.

Compared with B9, B10 is lower in “DR/DR AA” value: 1.553 for the first, 1.297 for the second.

First: B11
Second: B12
The “DR/DR AA” value of the first is lower: 0.365 for the first, 2.400 for the second.

Compared with B13, B14 is lower in “DR/DR AA” value: 1.180 for the first, 0.984 for the second.

Compared with B15, B16 is lower in “DR/DR AA” value: 1.656 for the first, 1.492 for the second.

Going from B17 to B18, the “DR/DR AA” value falls from 0.976 to 0.774.

With B19 the “DR/DR AA” value was 2.037.

Assay: Probe fluorescence ratio response to linoleic acid relative to ADIFAB2
Format: binding
Conditions: response relative to ADIFAB2
In short: as §1

Compared with B1, B2 is lower in “DR/DR LA” value: 2.283 for the first, 1.778 for the second.

Going from B3 to B4, the “DR/DR LA” value falls from 2.619 to 0.657.

Compared with B5, B6 is lower in “DR/DR LA” value: 2.493 for the first, 0.985 for the second.

Compared with B7, B8 is higher in “DR/DR LA” value: 1.782 for the first, 2.680 for the second.

First: B9
Second: B10
The “DR/DR LA” value of the first is higher: 1.668 for the first, 0.707 for the second.

Going from B11 to B12, the “DR/DR LA” value rises from 1.018 to 2.780.

Compared with B13, B14 is lower in “DR/DR LA” value: 1.170 for the first, 1.002 for the second.

First: B15
Second: B16
The “DR/DR LA” value of the first is higher: 1.288 for the first, 0.229 for the second.

First: B17
Second: B18
The “DR/DR LA” value of the first is higher: 1.063 for the first, 0.855 for the second.

In the case of B19, the “DR/DR LA” value is reported as 2.047.

Assay: Probe fluorescence ratio response to linolenic acid relative to ADIFAB2
Format: binding
Conditions: response relative to ADIFAB2
In short: as §1

Going from B1 to B2, the “DR/DR LNA” value falls from 1.913 to 1.615.

Compared with B3, B4 is lower in “DR/DR LNA” value: 2.537 for the first, 0.641 for the second.

Going from B5 to B6, the “DR/DR LNA” value falls from 2.322 to 0.756.

First: B7
Second: B8
The “DR/DR LNA” value of the first is lower: 1.640 for the first, 2.433 for the second.

First: B9
Second: B10
The “DR/DR LNA” value of the first is higher: 1.495 for the first, 0.639 for the second.

Compared with B11, B12 is higher in “DR/DR LNA” value: 0.940 for the first, 2.605 for the second.

Compared with B13, B14 is higher in “DR/DR LNA” value: 1.139 for the first, 1.153 for the second.

First: B15
Second: B16
The “DR/DR LNA” value of the first is higher: 0.930 for the first, 0.541 for the second.

First: B17
Second: B18
The “DR/DR LNA” value of the first is higher: 0.835 for the first, 0.705 for the second.

For B19, the “DR/DR LNA” value was 1.960.

Assay: Probe fluorescence ratio response to oleic acid relative to ADIFAB2
Format: binding
Conditions: response relative to ADIFAB2
In short: as §1

Going from B1 to B2, the “DR/DR OA” value falls from 1.908 to 1.155.

First: B3
Second: B4
The “DR/DR OA” value of the first is higher: 2.007 for the first, 0.355 for the second.

First: B5
Second: B6
The “DR/DR OA” value of the first is higher: 2.506 for the first, 0.864 for the second.

Compared with B7, B8 is higher in “DR/DR OA” value: 1.085 for the first, 2.254 for the second.

First: B9
Second: B10
The “DR/DR OA” value of the first is higher: 0.887 for the first, 0.300 for the second.

Going from B11 to B12, the “DR/DR OA” value rises from 0.518 to 2.349.

Going from B13 to B14, the “DR/DR OA” value rises from 0.031 to 1.668.

First: B15
Second: B16
The “DR/DR OA” value of the first is higher: 1.167 for the first, 0.368 for the second.

Compared with B17, B18 is higher in “DR/DR OA” value: 0.904 for the first, 0.942 for the second.

In the case of B19, the “DR/DR OA” value is reported as 1.756.

Assay: Probe fluorescence ratio response to palmitic acid relative to ADIFAB2
Format: binding
Conditions: response relative to ADIFAB2
In short: as §1

First: B1
Second: B2
The “DR/DR PA” value of the first is higher: 1.039 for the first, 0.498 for the second.

First: B3
Second: B4
The “DR/DR PA” value of the first is higher: 1.784 for the first, 0.071 for the second.

First: B5
Second: B6
The “DR/DR PA” value of the first is higher: 1.434 for the first, 0.430 for the second.

Going from B7 to B8, the “DR/DR PA” value rises from 0.970 to 1.253.

Compared with B9, B10 is lower in “DR/DR PA” value: 0.652 for the first, 0.121 for the second.

First: B11
Second: B12
The “DR/DR PA” value of the first is lower: 0.421 for the first, 1.534 for the second.

First: B13
Second: B14
The “DR/DR PA” value of the first is lower: 0.377 for the first, 0.478 for the second.

Going from B15 to B16, the “DR/DR PA” value falls from 0.550 to 0.033.

First: B17
Second: B18
The “DR/DR PA” value of the first is lower: 0.377 for the first, 0.463 for the second.

With B19 the “DR/DR PA” value was 1.236.
